Test results from PMC3227427.

Key:
[1] = target: T1, Pyrococcus furiosus (Pfu) RNase P protein RPP30 (Pyrococcus furiosus); test: ITC; Pop5 (87.2 uM) titrated into RPP30 (9.89 uM); 55°C; 10 mM sodium acetate pH 5, no salt; one-site model; apparent
T1 sequence (Q8TZS0 1-214, looked up): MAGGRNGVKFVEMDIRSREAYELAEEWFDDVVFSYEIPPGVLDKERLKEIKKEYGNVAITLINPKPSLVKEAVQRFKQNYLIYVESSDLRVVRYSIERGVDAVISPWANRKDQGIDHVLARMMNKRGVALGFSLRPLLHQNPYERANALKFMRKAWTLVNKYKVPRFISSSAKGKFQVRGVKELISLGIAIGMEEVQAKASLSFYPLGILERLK

[2] = target: T1, Pyrococcus furiosus (Pfu) RNase P protein RPP30 (Pyrococcus furiosus); test: ITC; Pop5 (87.2 uM) titrated into RPP30 (4.95 uM); 55°C; 10 mM sodium acetate pH 5 with 130 mM KCl; one-site model; apparent
[3] = target: T1, Pyrococcus furiosus (Pfu) RNase P protein RPP30 (Pyrococcus furiosus); test: ITC; Pop5 (148 uM) titrated into RPP30 (14.8 uM); 55°C; no salt or 150 mM NaCl; smaller injections, higher Wiseman c value; two-site model

- Kd [1]: 0.124 µM
- stoichiometry N [1]: 1
- Kd [2]: 0.0035 µM
- stoichiometry N [2]: 1
- stoichiometry N [3]: 1
B1: Pyrococcus furiosus (Pfu) RNase P protein Pop5, Cys72Ser variant (natural protein)
chain: MSERPKTLPPTLRDKKRYIAFKVISENQFNKDEIKEAIWNACLRTLGELGTAKAKPWLIKFDETTQTGIIRSDRNHVYDVIFSLTLVSDINGNKAIIKVLGVSGTIKRLKRKFLSQFGWR
